B1: TPR t1 (parent)
chain: GACCAAUCUGCCCUCAGAGCUCGAGAACAUCUUCGGAUGCAGAGGAGGCAGGCUUCGGUGGCGCGAUAGCGCCAACGUCCUCAACCUCCAAUGCAUCCCACCACAUGAUGAUGCCUGAAGAGCCUUGGUUUUUUG

Variants of: B1
Test: polymerase ribozyme fitness, log enrichment relative to wild type (log ratio); higher = more active; in vitro selection for triplet polymerase activity
Method in brief: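 Only genotypes with ≥10 input reads and ≥1 read per output were kept after Illumina sequencing of input and output libraries. These libraries were PCR-built, transcribed mutants of each subunit of a heterodimeric triplet polymerase ribozyme, each put through one triplicate in vitro selection round with frozen incubation at −7 °C, gel excision of extended constructs, streptavidin-bead capture and RT-PCR. Fitness is a logarithmic ratio of genotype enrichment to wild-type enrichment, from inverse-variance-weighted replicate averages, with the logarithm in base 2.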

Variant | polymerase ribozyme fitness (log ratio)
A18U G69C C85A C89G | -6.03
C20G G71C | -5.08
C20U G45U G52A C73G C94U C104U | -4.54
A18G U129C | -4.73
C20G U78C U109G | -3.79
A18U A26C C62U G120C U126G | -7.02
G19C C53A G93A C123U | -2.59
G19U C101A | -4.08
G19A C62A U78A U81A C101G G113U U130A | -6.38
C20U A37G C102A | -3.43
C20A A41C C82A | -4.5
A18U A29G C56A C80A | -6.14
A18G G36A G61A U116C A118G | -3.23
G19C U78C G110C | -5.42
C20U C72U U78A A111G C123G G135C | -3.01
G19U A105U U106A G113C | -0.75
C20G C40U C124U U126C | -4.35
G19C C62U C64U G120C | -2.12
G19A G77C | -2.48
U21A G39U C62A | -2.62
C20A U32G G35C U59G G61A A74C | -4.63

Variant | polymerase ribozyme fitness (log ratio)
C20A G42U G47U C53U | -3.95
C20G G57C | -4.41
C20A A66G | -4.25
C20A U38A G48A C104A A121U | -6.26
A18G G19C C53U A111U | -4.72
A18U C114U | -3.74
U21A G39U | -1.5
C20A G60A | -2.83
A18U G71A | -2.85
A18G G19A U96C C115A | -4.42
C20A | -2.6
C20G | -3.76
C20U | -1.26
C20A G36A A84G A118G | -5.67
A18U U78G U96G | -4.41
G19U G110C | -5.06
A18U A24G C72U C73U | -4.35
C20G U38G C76G | -5.6
C20A G61A | -2.67
A18U G120A | -1.14
C20U G61A C124A G135C | 0.689

Variant | polymerase ribozyme fitness (log ratio)
C20A A29G G36U | -6.08
C20G A43G | -3.54
A18G U130G | -4.25
C20A C88G | -3.11
U21A G39U G48A A74U U78G | -2.09
C20A A46U | -4.55
A18U G39U C73U C85G | -4.26
U21A A26G C40G C49A | -3.04
G19A C73A A105U C114U U116G | -5.41
A18G U78C | -2.98
G19A C56G U106A G113C | -1.09
G19C G93A C104U U112C | -0.693
C20G C56U C82A G113C | -2.04
U21A A27C U78G A84U C114A | -6.87
C20G C53G C72U | -3.94
U21A G45A U59G G71A | -4.25
U21A C49A C73A C115A U130G | 0.139
C20A C64G C114A | -7.24
G19A U109A | -5.74
G19C G36A G48A C82U C124A | -3.64
C20U C72A | -1.55

Variant | polymerase ribozyme fitness (log ratio)
C20U C72G | -1.56
C20U U32G | -6.33
C20U G48U | -2.05
G19C G63C | -2.72
G19U U54G A68G C70G G117C | -5.56
G19A G63A A111G | -1.39
C20U C28A G93U G110C | -4.8
A18U U55G C82G G120A | -3.38
C20A C73G | -3.25
A18U U21C G36A C114U | -3.69
C20U A91G | -2.03
A18U C89A U133A | -2.21
C20U C40U G60U C82A U96A C124A | -1.54
C20A A29U C62U A119U U129G | -4.53
G19U C88A | -2.97
U21A C40G U125A | -1.07
C20A C28G C70G A83U C99U G113U | -6.88
C20U C73U G110U G120U A121G | -3
G19C C101A G120U C124A G135C | -3.1
U21A C53U C85U | -2.21

From the RNAGym collection of RNA variant scans (doi:10.1073/pnas.2313332121)
